Measured values as given in patent US20230380451A1, “MEANS AND METHODS TO DETOXIFY MYCOTOXINS” (priority 2020, published 2023).
Positions count from the first letter of the chain named.

Assay: Storage stability in storage buffer at different temperatures, residual DON transformation activity
Type: biochemical
Conditions: for Relative DON transformation activity: storage buffer
Description: To determine the transformation of DON to epi-THS by Akr I-III, described herein, the following assay was performed. An assay buffer was prepared containing 40 ppm DON, 1 mM NADPH in Teorell Stenhagen (TS) buffer, pH 6.0 (Östling and Virtama, Acta Physiologica Scandinavica, 1946, 11:4, 289-293). Tubes containing the assay buffer were transferred in a heating block at 30° C. The reaction was started by addition of Akr I-III to a final concentration of 200 nM in a final reaction volume of 200 μL. Samples were taken before reaction start, and 2, 5, 10, 15 and 20 min after reaction start. DON transformation reactions in these samples were stopped by mixing with absolute methanol at a 1:2 ratio, followed by a 1:100 dilution with 40% methanol. The concentrations of DON and epi-THS in the samples were determined with liquid chromatography-mass spectrometry (LC-MS) on a Sciex 5500 triple quadrupole mass spectrometer coupled to Agilent 1290 series UHPLC system, using the following MS parameters: Acquisition duration: 4 min; Scan Type: MRM (MRM); Polarity: Negative; Ion Source: Turbo Spray.
The storage stability of Akr I-III was tested by incubation of 5 μM enzyme solutions in storage buffer (50 mM Tris pH 9.0, 0.5M NaCl, 50% Glycerol), for 60 min in a thermocycler (Mastercycler, Eppendorf) set to gradient mode from 30° C. to 50° C. Throughout the incubation, samples were removed and placed on ice until DON transformation assays were performed as described in Example 3 to determine enzyme activities. The starting activity at time 0 min was set to 100% and the relative residual activities were determined throughout the incubation. Akr I retained more than 33% activity during 60 min in pH 6 at temperatures from 29.9° C. to 46.0° C. Akr III retained 15% to 90% activity during 20 min in pH 6 at temperatures from 29.9° C. to 40.7° C.

[1] = 29.9° C., 0 min (starting activity set to 100%)
[2] = 35.3° C., 0 min (starting activity set to 100%)
[3] = 37.9° C., 0 min (starting activity set to 100%)
[4] = 40.7° C., 0 min (starting activity set to 100%)
[5] = 43.4° C., 0 min (starting activity set to 100%)
[6] = 46.0° C., 0 min (starting activity set to 100%)
[7] = 50.8° C., 0 min (starting activity set to 100%)

B1: Akr II: artificial amino acid sequence, variant of a wild type aldo-keto reductase (protein)
chain: MRTTEIAQGLKVSNLCIGAGPLGGMPTAFGYDVSEERGIATVQAVFDSPINFMDTSSEYGGSEARIGKVIREGLMPKGFVISSKADAEGEGVGRRGDFSAKQVRASFELSLERLGLTHLDVYFLHDPEKFPFEQVMARGGAMEELLRLKDEGLVGLVGVAGGDVLEMARYVDTGSLDILLNYGRYTLLDRSADSLITKVSDAGMAFLNAGPYASGLLAAPRGGSAWYQYAPPDATALQAVDQLHELCESFDVSLRSVALQFSMRDPRITSTVVGLSRPERVRALLDDEAAEIPAELWEQLPAPLNGDIVLPG
modifications: ArkII
[1]
  Relative DON transformation activity: 100.00%
29.9° C., 5 min
  Relative DON transformation activity: 95.8%
29.9° C., 10 min
  Relative DON transformation activity: 91.6%
29.9° C., 20 min
  Relative DON transformation activity: 90.3%
29.9° C., 35 min
  Relative DON transformation activity: 89.4%
29.9° C., 50 min
  Relative DON transformation activity: 84.1%
29.9° C., 60 min
  Relative DON transformation activity: 86.8%
[2]
  Relative DON transformation activity: 100.00%
35.3° C., 5 min
  Relative DON transformation activity: 91.9%
35.3° C., 10 min
  Relative DON transformation activity: 92.5%
35.3° C., 20 min
  Relative DON transformation activity: 86.0%
35.3° C., 35 min
  Relative DON transformation activity: 77.4%
35.3° C., 50 min
  Relative DON transformation activity: 49.6%
35.3° C., 60 min
  Relative DON transformation activity: 46.4%
[3]
  Relative DON transformation activity: 100.00%
37.9° C., 5 min
  Relative DON transformation activity: 90.5%
37.9° C., 10 min
  Relative DON transformation activity: 80.2%
37.9° C., 20 min
  Relative DON transformation activity: 65.0%
37.9° C., 35 min
  Relative DON transformation activity: 38.1%
37.9° C., 50 min
  Relative DON transformation activity: 10.6%
37.9° C., 60 min
  Relative DON transformation activity: 6.2%
[4]
  Relative DON transformation activity: 100.00%
40.7° C., 5 min
  Relative DON transformation activity: 61.5%
40.7° C., 10 min
  Relative DON transformation activity: 56.1%
40.7° C., 20 min
  Relative DON transformation activity: 15.5%
40.7° C., 35 min
  Relative DON transformation activity: 11.3%
40.7° C., 50 min
  Relative DON transformation activity: 0.00%
40.7° C., 60 min
  Relative DON transformation activity: 0.00%
[5]
  Relative DON transformation activity: 100.00%
43.4° C., 5 min
  Relative DON transformation activity: 39.2%
43.4° C., 10 min
  Relative DON transformation activity: 34.9%
43.4° C., 20 min
  Relative DON transformation activity: 21.9%
43.4° C., 35 min
  Relative DON transformation activity: 7.1%
43.4° C., 50 min
  Relative DON transformation activity: 0.00%
43.4° C., 60 min
  Relative DON transformation activity: 0.00%
[6]
  Relative DON transformation activity: 100.00%
46.0° C., 5 min
  Relative DON transformation activity: 2.9%
46.0° C., 10 min
  Relative DON transformation activity: 4.7%
46.0° C., 20 min
  Relative DON transformation activity: 0.00%
46.0° C., 35 min
  Relative DON transformation activity: 2.7%
46.0° C., 50 min
  Relative DON transformation activity: 0.00%
46.0° C., 60 min
  Relative DON transformation activity: 0.00%
[7]
  Relative DON transformation activity: 100.00%
50.8° C., 5 min
  Relative DON transformation activity: 4.7%
50.8° C., 10 min
  Relative DON transformation activity: 5.7%
50.8° C., 20 min
  Relative DON transformation activity: 9.4%
50.8° C., 35 min
  Relative DON transformation activity: 2.4%
50.8° C., 50 min
  Relative DON transformation activity: 0.00%
50.8° C., 60 min
  Relative DON transformation activity: 0.00%

B2: Akr III: artificial amino acid sequence, variant of a wild type aldo-keto reductase (protein)
chain: B1 chain with L74R, L187I, G312R
modifications: ArkIII
During 60 min in pH 6 at temperatures from 29.9° C. to 46.0° C.
  retained activity: more than 50%
[1]
  Relative DON transformation activity: 100.00%
29.9° C., 5 min
  Relative DON transformation activity: 89.1%
29.9° C., 10 min
  Relative DON transformation activity: 91.6%
29.9° C., 20 min
  Relative DON transformation activity: 90.3%
29.9° C., 35 min
  Relative DON transformation activity: 93.1%
29.9° C., 50 min
  Relative DON transformation activity: 74.0%
29.9° C., 60 min
  Relative DON transformation activity: 72.2%
[2]
  Relative DON transformation activity: 100.00%
35.3° C., 5 min
  Relative DON transformation activity: 96.00%
35.3° C., 10 min
  Relative DON transformation activity: 65.2%
35.3° C., 20 min
  Relative DON transformation activity: 98.6%
35.3° C., 35 min
  Relative DON transformation activity: 75.2%
35.3° C., 50 min
  Relative DON transformation activity: 80.2%
35.3° C., 60 min
  Relative DON transformation activity: 104.3%
[3]
  Relative DON transformation activity: 100.00%
37.9° C., 5 min
  Relative DON transformation activity: 94.01%
37.9° C., 10 min
  Relative DON transformation activity: 74.5%
37.9° C., 20 min
  Relative DON transformation activity: 43.9%
37.9° C., 35 min
  Relative DON transformation activity: 75.2%
37.9° C., 50 min
  Relative DON transformation activity: 80.9%
37.9° C., 60 min
  Relative DON transformation activity: 78.6%
[4]
  Relative DON transformation activity: 100.00%
40.7° C., 5 min
  Relative DON transformation activity: 104.1%
40.7° C., 10 min
  Relative DON transformation activity: 76.1%
40.7° C., 20 min
  Relative DON transformation activity: 81.6%
40.7° C., 35 min
  Relative DON transformation activity: 104.5%
40.7° C., 50 min
  Relative DON transformation activity: 75.8%
40.7° C., 60 min
  Relative DON transformation activity: 105.1%
[5]
  Relative DON transformation activity: 100.00%
43.4° C., 5 min
  Relative DON transformation activity: 83.4%
43.4° C., 10 min
  Relative DON transformation activity: 68.1%
43.4° C., 20 min
  Relative DON transformation activity: 66.7%
43.4° C., 35 min
  Relative DON transformation activity: 89.3%
43.4° C., 50 min
  Relative DON transformation activity: 81.3%
43.4° C., 60 min
  Relative DON transformation activity: 91.8%
[6]
  Relative DON transformation activity: 100.00%
46.0° C., 5 min
  Relative DON transformation activity: 97.7%
46.0° C., 10 min
  Relative DON transformation activity: 62.6%
46.0° C., 20 min
  Relative DON transformation activity: 62.5%
46.0° C., 35 min
  Relative DON transformation activity: 58.4%
46.0° C., 50 min
  Relative DON transformation activity: 23.3%
46.0° C., 60 min
  Relative DON transformation activity: 50.4%
[7]
  Relative DON transformation activity: 100.00%
50.8° C., 5 min
  Relative DON transformation activity: 77.4%
50.8° C., 10 min
  Relative DON transformation activity: 72.7%
50.8° C., 20 min
  Relative DON transformation activity: 19.5%
50.8° C., 35 min
  Relative DON transformation activity: 16.6%
50.8° C., 50 min
  Relative DON transformation activity: 10.9%
50.8° C., 60 min
  Relative DON transformation activity: 16.0%
